Biological target: T1, recombinant human ErbB3 protein (Homo sapiens, UniProt P21860)
T1 construct: purchased R&D systems
Experiment: Binding affinity of anti-ErbB3 antibody to human ErbB3 protein (Octet QK384)
Conditions: immobilized human ErbB3; for ka (association constant): binding phase about 900 seconds; for kd (dissociation constant): dissociation phase about 1200 seconds
Procedure: In particular, the binding affinities of the anti-ErbB3 antibodies to the recombinant human ErbB3 protein (R&D systems) and the antigen-antibody interactive dynamics were measured using an Octet® QK384 system (Pall Life Sciences). After activation of carboxyl groups in 20 mM of 1-ethyl-3-(3-dimethylaminopropyl)carbodiimide hydrochloride (EDC) and 40 mM of N-hydroxysulfosuccinimide (sulfo-NHS) solution on an AR2G sensor (ForteBio), 10 μg/mL of human ErbB3 protein solution diluted with 10 mM of sodium acetate (pH 4.0) (ForteBio) was added to immobilize human ErbB3 protein onto the AR2G sensor. The AR2G sensor to which the human ErbB3 protein was immobilized was treated with 1 M of ethanolamine (ForteBio) to inactivate the remaining unreacted carboxyl groups.

Molecule	ka (association constant)	kd (dissociation constant)
442S9: modified anti-ErbB3 antibody from lead antibody 442P (CDR mutagenesis) (antibody, V domains shown, Heavy chain variable region of antibody 442S9; Light chain variable region of antibody 442S9) VH: EVQLLESGGGLVQPGGSLRLSCAASGFTFSDYDMSWVRQAPGKGLEWVSSIYPDSGSTYYADSVQGRFTISRDNSKNTLYLQMNSLRAEDTAVYYCAKDRHMWPEGPFDYWGQGTLVTVSS VL: QSVLTQPPSASGTPGQRVTISCSGSSSNIGSNSGSWYQQLPGTAPKLLIYADNHRPSGVPDRFSGSKSGTSASLAISGLRSEDEADYYCAAWDSSLSGYVFGGGTKLTVLG	821000 M⁻¹ s⁻¹	5.87e-05 s⁻¹
442M3: modified anti-ErbB3 antibody from lead antibody 442P (CDR mutagenesis) (antibody, V domains shown, Heavy chain variable region of antibody 442M3; Light chain variable region of antibody 442M3) VH: EVQLLESGGGLVQPGGSLRLSCAASGFTFSDYDMSWVRQAPGKGLEWVSSIYPDSGSTYYADSVQGRFTISRDNSKNTLYLQMNSLRAEDTAVYYCAKDRHMWPEGPFDYWGQGTLVTVSS VL: QSVLTQPPSASGTPGQRVTISCSGSSSNIGSNSGSWYQQLPGTAPKLLIYADNWRPSGVPDRFSGSKSGTSASLAISGLRSEDEADYYCAAWDSSLSGYVFGGGTKLTVLG	771000 M⁻¹ s⁻¹	2.62e-06 s⁻¹
442M4: modified anti-ErbB3 antibody from lead antibody 442P (CDR mutagenesis) (antibody, V domains shown, Heavy chain variable region of antibody 442M4; Light chain variable region of antibody 442M4) VH: EVQLLESGGGLVQPGGSLRLSCAASGFTFSDYDMSWVRQAPGKGLEWVSTIDLDSGSIYYADSVQGRFTISRDNSKNTLYLQMNSLRAEDTAVYYCAKDLHMGPEGPFDYWGQGTLVTVSS VL: QSVLTQPPSASGTPGQRVTISCSGSSSNIGSNSVSWYQQLPGTAPKLLIYSDNHRPSGVPDRFSGSKSGTSASLAISGLRSEDEADYYCVGWDSSLYGHVFGGGTKLTVLG	573000 M⁻¹ s⁻¹	<1e-07 s⁻¹
442M5: modified anti-ErbB3 antibody from lead antibody 442P (CDR mutagenesis) (antibody, V domains shown, Heavy chain variable region of antibody 442M5; Light chain variable region of antibody 442M5) VH: EVQLLESGGGLVQPGGSLRLSCAASGFTFSDYDMSWVRQAPGKGLEWVSTIDLDSGSIYYADSVQGRFTISRDNSKNTLYLQMNSLRAEDTAVYYCAKDLHMGPEGPFDYWGQGTLVTVSS VL: QSVLTQPPSASGTPGQRVTISCSGSSSNIGSNSVSWYQQLPGTAPKLLIYSDNHRPSGVPDRFSGSKSGTSASLAISGLRSEDEADYYCHAWDSSLWGDVFGGGTKLTVLG	665000 M⁻¹ s⁻¹	<1e-07 s⁻¹
442M6: modified anti-ErbB3 antibody from lead antibody 442P (CDR mutagenesis) (antibody, V domains shown, Heavy chain variable region of antibody 442M6; Light chain variable region of antibody 442M6) VH: EVQLLESGGGLVQPGGSLRLSCAASGFTFSDYDMSWVRQAPGKGLEWVSSIEPDSGSTDYADSVQGRFTISRDNSKNTLYLQMNSLRAEDTAVYYCAKDRHMWPEGPFDYWGQGTLVTVSS VL: QSVLTQPPSASGTPGQRVTISCSGSSSNIGSNSGSWYQQLPGTAPKLLIYADNWRPSGVPDRFSGSKSGTSASLAISGLRSEDEADYYCAAWDSSLSGYVFGGGTKLTVLG	969000 M⁻¹ s⁻¹	1.95e-05 s⁻¹
442M8: modified anti-ErbB3 antibody from lead antibody 442P (CDR mutagenesis) (antibody, V domains shown, Heavy chain variable region of antibody 442M8; Light chain variable region of antibody 442M8) VH: EVQLLESGGGLVQPGGSLRLSCAASGFTFSDYDMSWVRQAPGKGLEWVSSIYPDSGSTYYADSVQGRFTISRDNSKNTLYLQMNSLRAEDTAVYYCAKDLHMGPEGPFDYWGQGTLVTVSS VL: QSVLTQPPSASGTPGQRVTISCSGSSSNIGSNSVSWYQQLPGTAPKLLIYSDNHRPSGVPDRFSGSKSGTSASLAISGLRSEDEADYYCHAWDSSLYVDVFGGGTKLTVLG	870000 M⁻¹ s⁻¹	2.23e-06 s⁻¹
442M10: modified anti-ErbB3 antibody from lead antibody 442P (CDR mutagenesis) (antibody, V domains shown, Heavy chain variable region of antibody 442M10; Light chain variable region of antibody 442M10) VH: EVQLLESGGGLVQPGGSLRLSCAASGFTFSDYDMSWVRQAPGKGLEWVSSIYPDSGSTDYADSVQGRFTISRDNSKNTLYLQMNSLRAEDTAVYYCAKDLHMWPEGPFDYWGQGTLVTVSS VL: QSVLTQPPSASGTPGQRVTISCSGSSSNIGSNSVSWYQQLPGTAPKLLIYADNFRPSGVPDRFSGSKSGTSASLAISGLRSEDEADYYCAAWDSSLSGYVFGGGTKLTVLG	471000 M⁻¹ s⁻¹	<1e-07 s⁻¹
442M11: modified anti-ErbB3 antibody from lead antibody 442P (CDR mutagenesis) (antibody, V domains shown, Heavy chain variable region of antibody 442M11; Light chain variable region of antibody 442M11) VH: EVQLLESGGGLVQPGGSLRLSCAASGFTFSDYDMSWVRQAPGKGLEWVSTIEPDYGSTLYADSVQGRFTISRDNSKNTLYLQMNSLRAEDTAVYYCAKDLHMGPEGPFDYWGQGTLVTVSS VL: QSVLTQPPSASGTPGQRVTISCSGSSSNIGSNSVSWYQQLPGTAPKLLIYSDNHRPSGVPDRFSGSKSGTSASLAISGLRSEDEADYYCHAWDSSLSGDFFGGGTKLTVLG	1.49e+06 M⁻¹ s⁻¹	8.09e-06 s⁻¹
472S1: modified anti-ErbB3 antibody from lead antibody 472P (CDR mutagenesis) (antibody, V domains shown, Heavy chain variable region of antibody 472S1; Light chain variable region of antibody 472S1) VH: EVQLLESGGGLVQPGGSLRLSCAASGFTFSWYDMTWVRQAPGKGLEWVSGISYDGGNTYYADSVKGRFTISRDNSKNTLYLQMNSLRAEDTAVYYCARDPSWCLQDLCYYADGMDVWGQGTLVTVSS VL: QSVLTQPPSASGTPGQRVTISCSGSSSNIGSNSVSWYQQLPGTAPKLLIYADSNRPSGVPDRFSGSKSGTSASLAISGLRSEDEADYYCGSWDYSLSGYVFGGGTKLTVLG	649000 M⁻¹ s⁻¹	3.33e-07 s⁻¹
